Reference: publication PMC12499889, “Voltage-matrix nanopore profiling for the discrimination of protein mixtures”

Molecular target: carcinoembryonic antigen (CEA) (UniProt P06731 35-685)
Assay: solid-state nanopore (single-molecule); 3.6 M LiCl; 10 nM CEA, 1 uM aptamer; shift in signal distribution; 3.6 M LiCl, 10 mM HEPES-KOH pH 8.0; 1 uM aptamer incubated with 10 nM CEA for 1 h; temperature not stated; nanopore at -50 to -300 mV
Conditions: protein: commercial

Chain of carcinoembryonic antigen (CEA) (P06731 35-685): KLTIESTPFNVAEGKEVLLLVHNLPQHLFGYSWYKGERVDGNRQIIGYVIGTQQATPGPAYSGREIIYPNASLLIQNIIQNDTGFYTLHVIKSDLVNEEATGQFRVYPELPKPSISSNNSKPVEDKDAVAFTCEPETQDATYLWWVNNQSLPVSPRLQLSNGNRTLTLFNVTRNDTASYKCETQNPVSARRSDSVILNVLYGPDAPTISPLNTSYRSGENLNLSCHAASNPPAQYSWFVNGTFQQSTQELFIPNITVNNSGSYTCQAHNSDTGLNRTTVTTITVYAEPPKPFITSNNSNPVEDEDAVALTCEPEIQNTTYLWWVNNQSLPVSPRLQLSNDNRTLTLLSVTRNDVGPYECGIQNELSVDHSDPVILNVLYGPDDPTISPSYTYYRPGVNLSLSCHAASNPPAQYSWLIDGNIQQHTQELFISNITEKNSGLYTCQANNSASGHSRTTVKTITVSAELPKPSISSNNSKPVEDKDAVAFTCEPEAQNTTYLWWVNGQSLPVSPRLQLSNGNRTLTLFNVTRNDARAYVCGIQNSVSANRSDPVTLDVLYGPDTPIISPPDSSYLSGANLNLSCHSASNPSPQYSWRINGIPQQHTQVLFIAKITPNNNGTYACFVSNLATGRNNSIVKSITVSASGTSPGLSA

B1: CEA DNA aptamer (ssDNA)
DNA: TCGCGCGAGTCGTCTGGGAGCTACGTTTAGCGAGTCCGACGCTCGGTGCCTCTTCGGGAGGACGATGCGG
Question: Does B1 bind?
Answer: binds
